Measured values taken from patent US20110152183A1 (Novo Nordisk, published 2011).
Where a chain is given by its changes, count along the chain named. Bridge positions count the residues as written; N and C are the ends.

B1: Amylin (1-8)-[Arg11,Arg18]sCT (9-27)-amylin (33-37) (peptide)
peptide: KCNTATCALGRLSQELHRLQTYPRTNTGSNTY
HELM: PEPTIDE1{K.C.N.T.A.T.C.A.L.G.R.L.S.Q.E.L.H.R.L.Q.T.Y.P.R.T.N.T.G.S.N.T.Y.[am]}$PEPTIDE1,PEPTIDE1,2:R3-7:R3$$$V2.0; N-terminus assumed
SMILES: CC(C)C[C@H](NC(=O)[C@H](C)NC(=O)[C@@H]1CSSC[C@H](NC(=O)[C@@H](N)CCCCN)C(=O)N[C@@H](CC(N)=O)C(=O)N[C@@H]([C@@H](C)O)C(=O)N[C@@H](C)C(=O)N[C@@H]([C@@H](C)O)C(=O)N1)C(=O)NCC(=O)N[C@@H](CCCNC(=N)N)C(=O)N[C@@H](CC(C)C)C(=O)N[C@@H](CO)C(=O)N[C@@H](CCC(N)=O)C(=O)N[C@@H](CCC(=O)O)C(=O)N[C@@H](CC(C)C)C(=O)N[C@@H](Cc1c[nH]cn1)C(=O)N[C@@H](CCCNC(=N)N)C(=O)N[C@@H](CC(C)C)C(=O)N[C@@H](CCC(N)=O)C(=O)N[C@H](C(=O)N[C@@H](Cc1ccc(O)cc1)C(=O)N1CCC[C@H]1C(=O)N[C@@H](CCCNC(=N)N)C(=O)N[C@H](C(=O)N[C@@H](CC(N)=O)C(=O)N[C@H](C(=O)NCC(=O)N[C@@H](CO)C(=O)N[C@@H](CC(N)=O)C(=O)N[C@H](C(=O)N[C@@H](Cc1ccc(O)cc1)C(N)=O)[C@@H](C)O)[C@@H](C)O)[C@@H](C)O)[C@@H](C)O
B2: [His1]amylin (1-8)-[His11,His18,His24]sCT (9-27)-amylin (33-37) (peptide)
peptide: B1 peptide with K1H, R11H, R18H, R24H
HELM: PEPTIDE1{H.C.N.T.A.T.C.A.L.G.H.L.S.Q.E.L.H.H.L.Q.T.Y.P.H.T.N.T.G.S.N.T.Y.[am]}$PEPTIDE1,PEPTIDE1,2:R3-7:R3$$$V2.0; N-terminus assumed
SMILES: CC(C)C[C@H](NC(=O)[C@H](C)NC(=O)[C@@H]1CSSC[C@H](NC(=O)[C@@H](N)Cc2c[nH]cn2)C(=O)N[C@@H](CC(N)=O)C(=O)N[C@@H]([C@@H](C)O)C(=O)N[C@@H](C)C(=O)N[C@@H]([C@@H](C)O)C(=O)N1)C(=O)NCC(=O)N[C@@H](Cc1c[nH]cn1)C(=O)N[C@@H](CC(C)C)C(=O)N[C@@H](CO)C(=O)N[C@@H](CCC(N)=O)C(=O)N[C@@H](CCC(=O)O)C(=O)N[C@@H](CC(C)C)C(=O)N[C@@H](Cc1c[nH]cn1)C(=O)N[C@@H](Cc1c[nH]cn1)C(=O)N[C@@H](CC(C)C)C(=O)N[C@@H](CCC(N)=O)C(=O)N[C@H](C(=O)N[C@@H](Cc1ccc(O)cc1)C(=O)N1CCC[C@H]1C(=O)N[C@@H](Cc1c[nH]cn1)C(=O)N[C@H](C(=O)N[C@@H](CC(N)=O)C(=O)N[C@H](C(=O)NCC(=O)N[C@@H](CO)C(=O)N[C@@H](CC(N)=O)C(=O)N[C@H](C(=O)N[C@@H](Cc1ccc(O)cc1)C(N)=O)[C@@H](C)O)[C@@H](C)O)[C@@H](C)O)[C@@H](C)O

Assays:
[1] = molecular target: T1, Amylin 3(a) receptor (human calcitonin receptor (CTa) coexpressed with RAMP-3) on BHK570 cells (human, UniProt P30988 25-474); assay: cell-based or functional assay
T1 sequence (P30988 whole entry, looked up): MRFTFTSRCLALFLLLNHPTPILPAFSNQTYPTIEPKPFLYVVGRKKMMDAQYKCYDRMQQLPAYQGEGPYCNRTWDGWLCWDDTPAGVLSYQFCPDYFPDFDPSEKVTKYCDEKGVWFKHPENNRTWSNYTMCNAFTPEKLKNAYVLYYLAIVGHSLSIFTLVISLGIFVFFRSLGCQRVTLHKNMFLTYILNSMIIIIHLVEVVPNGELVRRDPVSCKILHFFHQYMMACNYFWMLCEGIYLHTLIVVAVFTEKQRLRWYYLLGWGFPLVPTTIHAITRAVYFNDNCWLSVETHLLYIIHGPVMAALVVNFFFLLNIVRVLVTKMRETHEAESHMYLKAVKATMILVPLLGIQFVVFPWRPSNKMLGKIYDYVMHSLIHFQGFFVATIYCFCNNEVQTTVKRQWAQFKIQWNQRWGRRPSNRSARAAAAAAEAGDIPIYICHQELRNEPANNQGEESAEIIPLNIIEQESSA
T1 sequence (O60896 whole entry, looked up): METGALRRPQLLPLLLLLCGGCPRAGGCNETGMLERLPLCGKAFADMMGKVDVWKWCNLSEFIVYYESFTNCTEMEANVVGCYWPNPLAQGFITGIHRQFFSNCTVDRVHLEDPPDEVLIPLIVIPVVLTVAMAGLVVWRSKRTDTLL

[2] = molecular target: Amylin 3(a) receptor (human calcitonin receptor (CTa) coexpressed with RAMP-3) on BHK570 cells (human, UniProt P30988 25-474); assay: cell-based or functional assay; remark: listed apart in the source

| EC50 (pM) in luciferase assay [1] [pM] | EC50 (pM) in luciferase assay [2] [pM] | Binder |
| --- | --- | --- |
| 3 | – | B1 |
| – | 10 | B2 |
| 50 | – | {4‑carboxy‑4‑(19-carboxy-nonadecanoylamino)butyryl}-KCNTATCALGRLSQELHRLQTYPRTNTGSNTY-NH2 (disulfide 2-7) |
